In assay [1] the target is UV-inactivated SARS-CoV preparation (Frankfurt 1 strain) (SARS-CoV strain Frankfurt 1). The experiment in a line: phage ELISA, plate 3 (no phage 0.054). On the technique in general: An ELISA detects its analyte on a solid surface through an enzyme-linked reagent.
The target is the same in assay [2]. The experiment in a line: phage ELISA, plate 2 (no phage 0.211).
The target is the same in assay [3]. The experiment in a line: phage ELISA, plate 4 (no phage 0.051).

Results on 19 molecules are retold here after patent publication EP1644414B1.

B1: SC03-034 (scFv)
scFv: AMAEVQLVQSGAEVKKPGESLKISCKGSGYGFITYWIGWVRQMPGKGLEWMGIIYPGDSETRYSPSFQGQVTISADKSINTAYLQWSSLKASDTAIYYCAGGSGISTPMDVWGQGTTVTVSSGTGGSGGTGSGTGGSTDVVMTQSPDSLAVSLGERATINCKSSQSILNRSNNKNYLAWYQQKPGQPPKLLIYWASTRESGVPDRFSGSGSGTDFNLTISSLQAEDVAVYYCQQYNNWPLTFGGGTKVDIKRAA
Consider B1, for which the OD492nm in assay [1] worked out at 0.802 OD492nm.

B2: SC03-036 (scFv)
scFv: AMAEVQLVQSGTEVKKPGESLKISCKGSGYGFITYWIGWVRQMPGKGLEWMGIIYPGDSETRYSPSFQGQVTISADKSINTAYLQWSSLKASDTAIYYCAGGSGISTPMDVWGQGTTVTVSSGTGGSGGTGSGTGGSTDIQMTQSPDSLAVSLGERATINCKSSQSVLHSPNNKNYLAWYQQKPGQPPKLLIYWASTRESGVPDRFSGSGSGTDFTLTISSLQAEDVAVYYCQQYYSTNSFGQGTKLEIKRAA
In turn, B2 had an OD492nm in assay [1] of 0.24 OD492nm.

B3: SC03-055 (scFv)
scFv: AMAQVQLQQWGAGLLKPSETLSLTCAVYGGSFSGFYWSWIRQPPGKGLEWIGEINHSGSTNYNPSLKSRVTISADTSKNQFSLKLSSVTAADTAVYYCARRVEVVEYQLLRPRYKSWFDPWGQGTLVTVSSGTGGSGGTGSGTGGSTQSVLTQPPSVSGAPGQRVSISCSGSGANGGTDPVSWYQKFPGTAPHLLIYDNNKRPSGIPDRFSGSKSGASATLDITGLQTGDEADYYCGAWDPSLSGYVFGTGTQLTVLSAA
Consider B3, for which the OD492nm in assay [1] was 0.608 OD492nm.

B4: SC03-023 (scFv)
scFv: AMAQVQLQQWGAGLLKPSETLSLTCAVYGGSFSGFYWSWIRQPPGKGLEWIGEINHSGSTNYNPSLKSRVTISVDTSKNQFSLKLSSVTAADTAVYYCARRVEVVEYQLLRPRYKSWFDPWGQGTLVTVSSGTGGSGGTGSGTGGSTQSALTQPRSVSGSPGQSVTISCTGSSSTVGGYNYVSWYQQHPGKAPKLMIYDVSKRPSGVSNRFSGSKSGNTASLTISGLQAEDEADYYCSSYTSSSTYVFGTGTKVTVLGAA
In the case of B4, in assay [2], the OD492nm amounted to 1.31 OD492nm.

B5: SC03-024 (scFv)
scFv: AMAQVQLVESGSELKIPGASVKVSCKATGYTFTRYSLNWVRQAPGQGLEWVGWINTQTGNSNYGQAFSGRFVFSLDTSVSTAYLQISSLQAEDTATYYCARKSAGSNAFDIWGQGTMVTVSSGTGGSGGTGSGTGGSTQSVVTQPPSVSAAPGQKATISCSGSSSNIGNNYVSWYQQLPGTAPKLLIYDNNKRPSGIPNRFSGSKSGTSATLGITGLQTGDEADYYCGTWDSSLSAYVFGTGTKVTVLGAA
The molecule B5 returned an OD492nm in assay [2] of 0.235 OD492nm.

B6: SC03-033 (scFv)
scFv: AMAQVQLVQSGTEVKKPGESLKISCKGSGYGFITYWIGWVRQMPGKGLEWMGIIYPGDSETRYSPSFQGQVTISADKSINTAYLQWSSLKASDTAIYYCAGGSGISTPMDVWGQGTTVTVSSGTGGSGGTGSGTGGSTDVVMTQSPDSLAVSLGERATINCKTSHNIFSRSNNKDYLAWYQQKPGQPPRLLIYWASTRASGVPERFSGSGSGTDFSLTISSLQAEDVAVYYCQQYYSSPMYSFGQGTKVEIKRAA
In assay [3], B6 yielded an OD492nm of 0.288 OD492nm.

B7: SC03-031 (scFv)
scFv: AMAQVQLVQSGADVKKPGSSVKVSCEASGGTFSSYAISWVRQAPGQGLEWMGRIIPILGITNYAQKFQGRVTITADKSTGTGNMELSSLRSEDTAVYYCARESGGGYDNHFDYWGQGTLVTVSSGTGGSGGTGSGTGGSTQSVLTQPPSASGTPGQRVTISCSGGSSNIGSNTVNWYQQLPGTAPKLVIYANNQRPSGVPDRFSASKSGTSASLAISGLQSEDEADYYCAAWDDSLTGGVFGGGTQLTVLSAA
B7 gave an OD492nm in assay [3] of 0.635 OD492nm.

B8: SC03-040 (scFv)
scFv: AMAQVQLVQSGGGLVQPGGSLRLSCAASGFTFSSYAMHWVRQAPGKGLEYVSGISSNGGSTYYANSVKGRFTISRDNSKNTLYLQMGSLRAEDMAVYYCARTTNRAFDIWGQGTMVTVSSGTGGSGGTGSGTGGSTDIQMTQSPDSLAVSLGERATINCRSSQSVLYSSNNKNYLAWYQQKPGQPPKLLIYWASTRESGVPDRFSGSGSGTDFTLTISSLQAEDVAVYYCQQYYSSPYSFGQGTKLEIKRAA
Regarding B8, the OD492nm in assay [3] was 0.616 OD492nm.

B9: SC03-054 (scFv)
scFv: AMAEVQLVQSGGGVVQPGRSLRLSCAASGFTFSSYAMHWVRQAPGKGLEYVSGISSNGGSTYYANSVKGRFTISRDNSKNTLYLQMGSLRAEDMAVYYCARTTNRAFDIWGQGTMVTVSSGTGGSGGTGSGTGGSTDIQLTQSPDSLAVSLGERATINCKSSQSVLYSSNNKNYLAWYQQKPGQPPKLLIYWASTRESGVPDRFSGGGSGTDFTLTISSLQAEDVAVYYCQQYYSTPYSFGQGTKVEIKRAA
Regarding B9, the OD492nm in assay [3] came out at 0.428 OD492nm.

B10: SC03-046 (scFv)
scFv: AMAEVQLVQSGGGLVQPGGSLRLSCAASGFTFSSYAMHWVRQAPGKGLEYVSGISSNGGSTYYANSVKGRFTISRDNSKNTLYLQMGSLRAEDMAVYYCARTTNRAFDIWGQGTMVTVSSGTGGSGGTGSGTGGSTDVVMTQSPDSLAVSLGERATINCKSSQSVLYSSNNKNYLAWYQQKPGQPPKLLIYWASTRESGVPDRFSGSGSGTDFSLTISSLQAEDVAVYYCQQYYSPPYTFGPGTKVEIKRAA
For the molecule B10, the OD492nm in assay [1] was determined as 1.9 OD492nm.

B11: SC03-043 (scFv)
scFv: AMAQVQLVQSGGGLVQPGGSLRLSCAASGFTFSSYAMHWVRQAPGKGLEYVSGISSNGGSTYYANSVKGRFTISRDNSKNTLYLQMGSLRAEDMAVYYCARTTNRAFDIWGQGTMVTVSSGTGGSGGTGSGTGGSTDIQLTQSPDSLAVSLGERATINCKSSQSVLYRSNNKNYLAWYQQKPGQPPKLLIYWASTRESGVSERFSGSGSGTDFTLTISSLQAEDVAVYYCQQYYSTPYSFGQGTKLEIKRAA
In turn, B11 had an OD492nm in assay [1] of 1.27 OD492nm.

B12: SC03-044 (scFv)
scFv: AMAEVQLVETGGGLVQPGGSLRLSCAASGFTFSSYAMHWVRQAPGKGLEYVSGISSNGGSTYYANSVKGRFTISRDNSKNTLYLQMGSLRAEDMAVYYCARTTNRAFDIWGQGTMVTVSSGTGGSGGTGSGTGGSTDIQMTQSPDSLAVSLGERATINCKSSQSVLYSSNNKNYLAWYQQKPGQPPKLLIYWASTRESGVPDRFRGSGSGTDFTLTISSLQAEDLAVYYCQQYYSTPYSFGQGTKLEIKRAA
In turn, B12 showed an OD492nm in assay [3] of 0.518 OD492nm.

B13: SC03-039 (scFv)
scFv: AMAEVQLVESGGGLVQPGGSLRLSCAASGFTFSSYAMSWVRQAPGKGLEWVSVIYSGGTSTYYADSVKGRFTISRDNSKNTLYLQMNSLRAEDTAVYFCAKGSKWNDVGGGDYWGQGTLVTVSSGTGGSGGTGSGTGGSTNFMLTQPHSVSESPGKTVTISCAGSSGSIASNYVQWYQQRPGSAPTTVIYEDNQRPSGVPDRFSGSIDSSSNSASLTISGLKTEDEADYYCQSYDGYLWIFGGGTKLTVLGAA
The molecule B13 returned an OD492nm in assay [1] of 0.851 OD492nm.

B14: SC03-020 (scFv)
scFv: AMAEVQLVQSGSEVKKPGESLKISCKGSGYGFITYWIGWVRQMPGKGLEWMGIIYPGDSETRYSPSFQGQVTISADKSINTAYLQWSSLKASDTAIYYCAGGSGISTPMDVWGQGTTVTVSSGTGGSGGTGSGTGGSTDIQMTQSPDSLAVSLGERATINCKSSQKILHSSNNKNYLAWYQQKPGQPPKLLIYWASTRESGVPDRFSGSGSGTDFTLTISSLQAEDVAVYYCQQYYSTPPVFGGGTKVEIKRAA
In turn, B14 gave an OD492nm in assay [2] of 0.671 OD492nm.

B15: SC03-021 (scFv)
scFv: AMAQVQLVQSGTEVKKPGESLKISCKGSGYGFITYWIGWVRQMPGKGLEWMGIIYPGDSETRYSPSFQGQVTISADKSINTAYLQWSSLKASDTAIYYCAGGSGISTPMDVWGQGTTVTVSSGTGGSGGTGSGTGGSTDVVMTQSPDSLAVSLGERATINCKSSQSVLHSSNNKNYLAWYQQKPGQPPKLLIYWASTRQSGVPDRFSGSGSGTDFTLTISSLQAEDVAVYYCQQYYSTPPTFGQGTKVEIKRAA
In the case of B15, the OD492nm in assay [2] is 0.215 OD492nm.

B16: SC03-051 (scFv)
scFv: AMAQVQLVQSGTEVKKPGESLKISCKGSGYGFITYWIGWVRQMPGKGLEWMGIIYPGDSETRYSPSFQGQVTISADKSINTAYLQWSSLKASDTAIYYCAGGSGISTPMDVWGQGTTVTVSSGTGGSGGTGSGTGGSTDIQMTQSPDSLAVSLGERATINCKSGQSILYSSNDKNYLAWYQQKPGQPPKLLIYWASTRESGVPDRFSGSGSGTDFTLTISSLQAEDVAVYYCQQYYSTPYTFGQGTKVEIKRAA
On to B16, for which the OD492nm in assay [1] was 0.602 OD492nm.

B17: SC03-057 (scFv)
scFv: AMAQVQLVQSGAEVKKPGSSVKVSCKASGGTFSRYAISWVRQAPGQGLEWMGRINPILNLTNYAQKFQGRVTITADKSTSTAYMEMSSLRSEDTAIYYCASPDIVVAGHASPPHYTMDVWGQGTTVTVSSGTGGSGGTGSGTGGSTDIQMTQSPSSLSASVGDRVTITCRASQGIRNDLGWYQQKPGKAPNLLIYQASALQSGVPSRFSGSESGAEFTLTISSLHPDDFATYYCQQYHDFPITFGQGTRLEIKRAA
The molecule B17 registered an OD492nm in assay [1] of 1.19 OD492nm.

B18: SC03-037 (scFv)
scFv: AMAKVQLVQSGGGLIQPGGSLRLSCAASGFTVSSNYMSWVRQAPGKGLEWVSIVFSGGSTYYADSVKGRFTISRDNSKNTLYLQMNSLRAEDTAVYYCARDAHRGFGMDVWGQGTTVTVSSGTGGSGGTGSGTGGSTSSELTQDPAVSVALGQTVRITCQGDSLRSYYASWYQQKPGQAPVLVIYGKNNRPSGIPDRFSGSSSGNTASLTITGAQAEDEADYYCNGRDSSGNHWVFGGGTKLTVLGAA
B18 had an OD492nm in assay [3] of 0.287 OD492nm.

B19: SC03-038 (scFv)
scFv: AMAEVQLVQSGGGLIQPGGSLRLSCAASGFTVSSNYMSWVRQAPGKGLEWVSIVFSGGSTYYADSVKGRFTISRDNSKNTLYLQMNSLRAEDTAVYYCARDAHRGFGMDVWGQGTTVTVSSGTGGSGGTGSGTGGSTSSELTQDPAVSVALGQTVRITCQGDSLRSYYASWYQQKPGQAPVLVIYGKNNRPSGIPDRFSGSSSGDTASLTITGAQAEDEADYYCNSRDSSGNHWVFGGGTKLTVLGAA
Turning to B19, in assay [3], the OD492nm is 0.314 OD492nm.
